In one assay the target is T1, rat α-CGRP (Rattus norvegicus, UniProt P01256).
T1 construct: rat α (1-37); purchased GenScript Corporation or Global Peptide Services
T1 sequence (P01256 83-119 limits assumed): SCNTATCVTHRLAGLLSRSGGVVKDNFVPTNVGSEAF
Put plainly: Biacore SPR affinity of Fab fragments to N-biotinylated rat α-CGRP on SA chip. In kind it is binding. As to conditions: 37° C., screening mode except underlined values. In a few lines:
(§1)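 HBS-EP pH 7.4 running buffer at 25° C. or 37° C.; N-biotinylated CGRP captured on streptavidin SA chip (<50 RU for kinetics), Fab titrated over surface with regeneration by 25 mM NaOH/25% ethanol. Titrations globally fit to 1:1 Langmuir model; KD=koff/kon, with 2-hour dissociation for very slow off-rates.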
(In general: Surface plasmon resonance follows binding to a sensor surface in real time, without labels.)

In a further assay the target is T2, human α-CGRP (Homo sapiens, UniProt P06881).
T2 construct: 1-37 (WT); purchased GenScript Corporation or Global Peptide Services
T2 sequence (P06881 83-119 limits assumed): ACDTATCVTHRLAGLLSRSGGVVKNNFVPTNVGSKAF
Put plainly: Biacore SPR affinity of Fab fragments to N-biotinylated human α-CGRP on SA chip. The format is binding. The following applies: 37° C., screening mode except underlined values. In a few lines: as §1

This note sets out measurements from US20190071490A1, “Preventing Post-Ictal Headaches” (Beth Israel Deaconess Medical Center, Inc., priority 2017, published 2019).

B1: M80: G1 variant; L1 R28N T30S; L2 L561; H2 E54K A57N; S58V (printed in L1 column); HC-FW3 L99T A100V (antibody, V domains shown)
VH: EVQLVESGGGLVQPGGSLRLSCAASGFTFSNYWISWVRQAPGKGLEWVAEIRSKSDNVATHYAEAVKGRFTISRDNAKNSLYLQMNSLRAEDTAVYYCTVYFDYGLAIQNYWGQGTLVTVSS
VL: EIVLTQSPATLSLSPGERATLSCKASKNVSTYVSWYQQKPGQAPRLLIYGASNRYIGIPARFSGSGSGTDFTLTISSLEPEDFAVYYCSQSYNYPYTFGQGTKLEIK
B1: the “α-rat koff” value with rat α-CGRP is 0.0993 s⁻¹. In addition, the “α-human koff” value with human α-CGRP turned out to be 0.00209 s⁻¹.

B2: M84: G1 variant; L1 R28N T30V; L2 A51H L56T; H2 E54N A57N; HC-FW3 L99T A100V (antibody, V domains shown)
VH: EVQLVESGGGLVQPGGSLRLSCAASGFTFSNYWISWVRQAPGKGLEWVAEIRSNSDNSATHYAEAVKGRFTISRDNAKNSLYLQMNSLRAEDTAVYYCTVYFDYGLAIQNYWGQGTLVTVSS
VL: EIVLTQSPATLSLSPGERATLSCKASKNVVTYVSWYQQKPGQAPRLLIYGHSNRYTGIPARFSGSGSGTDFTLTISSLEPEDFAVYYCSQSYNYPYTFGQGTKLEIK
In the case of B2, the “α-rat koff” value with rat α-CGRP was found to be 0.0176 s⁻¹. Also, the “α-human koff” value in the assay with human α-CGRP was found to be 0.00108 s⁻¹.

B3: M82: G1 variant; L1 R28N T30V; L2 A51H L56T; H2 A57N; HC-FW3 L99T A100V (antibody, V domains shown)
VH: EVQLVESGGGLVQPGGSLRLSCAASGFTFSNYWISWVRQAPGKGLEWVAEIRSESDNSATHYAEAVKGRFTISRDNAKNSLYLQMNSLRAEDTAVYYCTVYFDYGLAIQNYWGQGTLVTVSS
VL: EIVLTQSPATLSLSPGERATLSCKASKNVVTYVSWYQQKPGQAPRLLIYGHSNRYTGIPARFSGSGSGTDFTLTISSLEPEDFAVYYCSQSYNYPYTFGQGTKLEIK
As for B3, the “α-rat koff” value with rat α-CGRP came to 0.00699 s⁻¹. The “α-human koff” value with human α-CGRP worked out at 0.000877 s⁻¹.

B4: M83: G1 variant; L1 R28N T30V; L2 A51H L56T; H2 E54K A57N S58M; H61F (printed in L1 column); HC-FW3 L99T A100V (antibody, V domains shown)
VH: EVQLVESGGGLVQPGGSLRLSCAASGFTFSNYWISWVRQAPGKGLEWVAEIRSKSDNMATFYAEAVKGRFTISRDNAKNSLYLQMNSLRAEDTAVYYCTVYFDYGLAIQNYWGQGTLVTVSS
VL: EIVLTQSPATLSLSPGERATLSCKASKNVVTYVSWYQQKPGQAPRLLIYGHSNRYTGIPARFSGSGSGTDFTLTISSLEPEDFAVYYCSQSYNYPYTFGQGTKLEIK
B4: the “α-rat koff (1/s)” value with rat α-CGRP is given as “No binding”. Further, in the assay with human α-CGRP, the “α-human koff” value is 0.000933 s⁻¹.

B5: M81: G1 variant; L1 R28N T30S; L2 L56S; H2 E54K A57N S58E; HC-FW3 L99T A100V (antibody, V domains shown)
VH: EVQLVESGGGLVQPGGSLRLSCAASGFTFSNYWISWVRQAPGKGLEWVAEIRSKSDNEATHYAEAVKGRFTISRDNAKNSLYLQMNSLRAEDTAVYYCTVYFDYGLAIQNYWGQGTLVTVSS
VL: EIVLTQSPATLSLSPGERATLSCKASKNVSTYVSWYQQKPGQAPRLLIYGASNRYSGIPARFSGSGSGTDFTLTISSLEPEDFAVYYCSQSYNYPYTFGQGTKLEIK
As to B5, the “α-rat koff” value with rat α-CGRP turned out to be 0.00429 s⁻¹. Besides, the “α-human koff” value with human α-CGRP was 0.00049 s⁻¹.

B6: M20: G1 variant; L1 R28W; HC-FW3 L99R A100L (antibody, V domains shown)
VH: EVQLVESGGGLVQPGGSLRLSCAASGFTFSNYWISWVRQAPGKGLEWVAEIRSESDASATHYAEAVKGRFTISRDNAKNSLYLQMNSLRAEDTAVYYCRLYFDYGLAIQNYWGQGTLVTVSS
VL: EIVLTQSPATLSLSPGERATLSCKASKWVTTYVSWYQQKPGQAPRLLIYGASNRYLGIPARFSGSGSGTDFTLTISSLEPEDFAVYYCSQSYNYPYTFGQGTKLEIK
For B6, the “α-rat koff” value with rat α-CGRP stood at 0.00144 s⁻¹. The “α-human koff” value with human α-CGRP was found to be 0.000136 s⁻¹.
